According to the nanobody polyreactivity screen of Harvey et al. (2022):

Assay: yeast display, Sf9 membrane polyspecificity reagent, FACS + sequencing; frameworks hold sequencing errors
Summary of the method: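 In a synthetic yeast display library (Saccharomyces cerevisiae BJ5465), nanobody expression was induced with galactose for 36–48 hours. FACS gates were set low and high (top ~1%) using anti-HA fluorescence for expression and streptavidin fluorescence for binding of the Sf9 membrane reagent. Each polyreactivity label is drawn from the gate of origin.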

Q: With “QVQLEESGGGLVQAGGRLRLTCAASGRTFFGYPMGWYRQAPGKERELVAAITSSGGRTYYADSVKGRFTISRDNPKNTDYLQMNSLKPEDTAVYYCAARRYRLSTPEFNYWGQGTQVTVSS” as the sequence, how does the “polyreactivity (PSR sort gate)” value read?
A: high polyreactivity

Q: Which “polyreactivity (PSR sort gate)” value does the source give for “QVQLVESGGGLVQAGGSLRLSCAASGSILYSYTMGWYRQAPGKERELVAAINRGGRTNYADSVKGRFTISRDNAKNTVYLQMNSLKPEDTAVYYCNTGIYAWSWRRAMDYWGQGTQVTVSS” here?
A: high polyreactivity

Q: For “QVQLVESGGGLVQAGGSLRLSCAASGFTYFYYAMGSYRQAPGKERELVASISWSGGSTYYADSVKGRFTISRDNAKNTVYLQMNSLKPEDTAVYYCAADVPFGGDYWGQGTQVTVSS”, which “polyreactivity (PSR sort gate)” value is on record?
A: low polyreactivity

Q: Which “polyreactivity (PSR sort gate)” value does the source give for “QVQLVESGGGLVQAGGSLRLSCAASGLTFYSYAMGWYRQAPGKERELVAAITSSDGSTYYADSVKGRFTISRDNAKNTVYLQMNSLKPEDTAVYYCNKDDNSYGLNYWGQGTQVTVSS” here?
A: low polyreactivity

Q: Which “polyreactivity (PSR sort gate)” value does the source give for “QVQLVESGGGLVQAGGSLRLSCAASGSTFYIYAMGWYRPAPGKERELVARISGSGGSTYYADSVKGRFTISRDNAKNTVYLQMNSLKPEDTAVYYCAADDIYKYYQYYAFPYYRYDYWGQGTQVTVSS” here?
A: low polyreactivity

Q: Which “polyreactivity (PSR sort gate)” value does the source give for “QVQLVESGGGLVQAGGSLRLSCAASGFIFGYYAMGWYRQAPGKERELVAAINKNGGSTYYADSVKGRFTISRDNAKNTVYLQMNSLKPEDTAVYYCAARARGYAWTYDYWGQGTQVTVSS” here?
A: high polyreactivity

Q: With “QVQLVESGGRLVQEGGSLRLSCAASGSTFKQYAMGWYRQAPGKEWELVAAISRSGSRTYYADSVKGRFTISRDNAKYTVYLQMNSLKPEDTAVYYCAAERRSTAGWLYDYWGQGTQVTVSS” as the sequence, how does the “polyreactivity (PSR sort gate)” value read?
A: high polyreactivity

Q: For “QVQLVESGGGLVQAGGSLRLSCAASGSIFFGNAMGWYRQAPGKERELVAAISTTGGSTYYADSVKGRFTISRDNAKNTVYLQMNSLKPEDTAVYYCNADRATWWEQWWYDYWGQGTLVTVSS”, which “polyreactivity (PSR sort gate)” value is on record?
A: low polyreactivity

Q: With “QVQLVESGGGLVQAGGSLRLSCAASGRIFRRYAMGWYRQAPGKERELVASISLSGGSTYYADSVKGRFTISRDNAKNTVYLQMNSLKPEDTAVYYCAAVIRAYATRATYNSWGQGTQVTVSS” as the sequence, how does the “polyreactivity (PSR sort gate)” value read?
A: high polyreactivity

Q: Which “polyreactivity (PSR sort gate)” value does the source give for “QVQLVESGGGLVQAGGSLRLSCAASGFIFTRYAMGWYRQAPGKERELVATITSGGSTNYADSVKGRFTISRDNAKNTVYLQMNSLKPEDTAVYYCTARWTGSYTSTGFRRRFDYWGQGTQVTVSS” here?
A: high polyreactivity

Q: For “QVQLVESGGGLVQAGGRLRLSCAASGFTFYVNAMGWYRQAPGKERELVAAIRGSGGSTYYADSVKGRFTISRVNAKITVYLQMNSLKPEDTAVYYCAKGKARSAQGSSRAYNYWGQGTQVTVSS”, which “polyreactivity (PSR sort gate)” value is on record?
A: high polyreactivity

Q: For “QVQLVESGGGLVQAGGSLRLSCAASGRTFRSYTMGWYRQAPGKERELVAAISYNGGSTYYADSVKGRFTISRDNAKNTVYLQMNSLKPEDTAVYYCNKDFDGRFDYWGQGTQVTVSS”, which “polyreactivity (PSR sort gate)” value is on record?
A: high polyreactivity

Q: For “QVQLVESGGGLVQAGGSLRLSCAASGSTFAFYDMGWYRQAPGKERELVAIIDWSGGRTYYADSVKGRFTISRDNAKNTVYLQMNSLKPEDTAVYYCNAENTYLGSRYRPYNYWGQGTQVTVSS”, which “polyreactivity (PSR sort gate)” value is on record?
A: low polyreactivity

Q: Which “polyreactivity (PSR sort gate)” value does the source give for “QVQLVESGGGLVQAGGSLRLSCAASGSIAYNAMGCYRQAPGKERELVASIRASGGRTYYADSVKGRFTISRDNAKNTVYLQMNSLKPEDTAVYYCAAYAYNAIEYGYWGQGTQVTVSS” here?
A: low polyreactivity

Q: Which “polyreactivity (PSR sort gate)” value does the source give for “QVQLVESGGGLVQAGGSLRLSCAASGSIFEGYVMGWYRQAPGKERELVATISFSGGSTYYADSVKGRFTISRDNAKNTVYLQMNSLKPEDTAVYYSAAAGVYYGVRGTTYAYDYWGQGTQVTVSS” here?
A: low polyreactivity

Q: With “QVQLVESGGGLVQAGGSLRLSCAASGSIFSDYTMGWYRQAPGKERELVAAISGIGGSTYYADSVKGRFTISRDNAKNTVYLQMNSLTPEDTAVYYCAPDDYYYPYFSHDYWGQGTQVTVSS” as the sequence, how does the “polyreactivity (PSR sort gate)” value read?
A: low polyreactivity

Q: With “QVQLVESGGGLVQAGGSLRLSCAASGSIFDGNAMGWYRQAPGKERELVASITYRGGSTYYADSVKGRFTISRDNAKNTVYLQMNSLQPEDTAVYYCAAVFKYRYDYWGQGTQVTVSS” as the sequence, how does the “polyreactivity (PSR sort gate)” value read?
A: low polyreactivity

Q: For “QVQLVESGGGLVQAGGSLRLSCAASGFIFGHYAMGWYRPAPGKERELVATIRRDPSRTYYADSVKGRFTISRDNAKNTVYLQMNSLKPEDTAVYYCATAQYIWGRSKYYYWGQGTQVTVSS”, which “polyreactivity (PSR sort gate)” value is on record?
A: high polyreactivity

Q: With “QVQLVESAGGLVQAGGSLRLSCADSGSISTVYAMGWYRPAPGKERELVAAISWSGGYTYYADTVKGRFTISRDNEKNTVYLQMNSVKPEDTAFYYCDAEGYLVGSRWGPCYGDYWGQGTQVTGSS” as the sequence, how does the “polyreactivity (PSR sort gate)” value read?
A: high polyreactivity

Q: With “QVQLVESGGGLVQAGGSLRLSCAASGSIFRGNAMGWSRQAPAKERELVAAISKSGGSTYYADSVKGRFTISRDNAKNTVYLQMNSLKPEDTAVYYCAARTTYLYGMYYWGQGTQVTVSS” as the sequence, how does the “polyreactivity (PSR sort gate)” value read?
A: low polyreactivity

Q: For “QVQLVESGGGIVQAGGSLRLSCAASGRIFRGYGMGWYRQAPGKERELVAAITSRGGSTYYADSVKGRFTISRDNAKNTVYLQMNSLKPEDTAVYYCAAVGVGYPGHKYYYWGQGTQVTVSS”, which “polyreactivity (PSR sort gate)” value is on record?
A: high polyreactivity

Q: For “QVQLVESGGGLVQAGGRLRLSCAASGSIFQPYAMGWSRQAPGKERELVAAINGRGGSTHYADSVKGRFTISRDNAKNTVYLQMNSLKPEDTAVYYWNRPKWYDGDYWGQGTQVTVSS”, which “polyreactivity (PSR sort gate)” value is on record?
A: high polyreactivity

Q: With “QVQLVESGGGLVQAGGSLRLSCAASGRIFYHNAMGWYRQAPGKERELVAAITWSGGSTYYADSVKGRFTISRDNAKNTVYLQMNSLKPEDTAVYYCAAYFYGRSYGYDYWGQGTQVTVSS” as the sequence, how does the “polyreactivity (PSR sort gate)” value read?
A: high polyreactivity

Q: Which “polyreactivity (PSR sort gate)” value does the source give for “QVQLVESGGGLVQAGGSLRLSCAASGSIFGVYAMRWYRQAPGKERELVATISRSGAITYYADSVKGRFTISRDNAKNTVYLQMNSLKPEDTAVYYCAADFFSRDWGQGTQVTVSS” here?
A: low polyreactivity

Q: With “QVQLVESGGGLVQAGGSLRLSCAASGSIISRNAMGWYRQAPGKEREFVAAITRSGGSTSYADSVKGRFTISRDNAKNTVYLQMNSLKPEDTAVYYCSASFARSATAYLFDYWGQGTQVTVSS” as the sequence, how does the “polyreactivity (PSR sort gate)” value read?
A: high polyreactivity

Q: Which “polyreactivity (PSR sort gate)” value does the source give for “QVQLVESGGGLVQAGGSLRLSCAASGRTVPYNAMGWYRQAPGKESELVAAISGRGGSTYYADSVKGRFTISRDNAKKTVYLQMTSLKPEDTAVYYCAARLPWSYYRTQGYNYWGQGTQVTVSS” here?
A: high polyreactivity

Q: Which “polyreactivity (PSR sort gate)” value does the source give for “QVQLVESGGRLVQAGGRHRLSGAASRNIFDRYALGWNLQAPGKESDLVAGITWSGGSTYYADSVKGRFTISRDNAKNTVYLHMNSLKPEDTAVYYCGQANYYWGQGTQVTVSS” here?
A: low polyreactivity

Q: For “QVQHVESGGGLVQAGGSLRLSSAPSGRTFAYYARGWYRQAPGKERELVAAISNGGSTYYADSVKGRFTISRDNAKNTVFLQMNSLKPEDTAVYFCNAYYSDLYDYWGQGTQVTVSS”, which “polyreactivity (PSR sort gate)” value is on record?
A: low polyreactivity

Q: Which “polyreactivity (PSR sort gate)” value does the source give for “QVHLVESGGGLVQAGGSLRLSSAASGSIFIIYAMGWYRQAPGKERELVADITCRGGDTYYADSVKGRFTISRDNAKNTVYLQMNSLKPEDTAVYYCAARAGYPYTVQDVGVSAYDYWGQGTQVTVSS” here?
A: low polyreactivity

Q: With “QVQLVESGGGLVQAGGRLRLSCAASGSTLSYYAMGWYIQAPGKERELVAAISFSGGSTYYADSVKGRFTISRDNAKNTVYLQMNSLKPEDTAVYYCNAPPLYRDEYWGQGTQVTVSS” as the sequence, how does the “polyreactivity (PSR sort gate)” value read?
A: high polyreactivity

Q: For “QVQLVESGGGVVQAGGSLRLSCAASGITFGWDAMGWYRQAPGKERELVASISSSGSTNYADSVKGRFTISRDNAKNTVYLQMNSLKPEDTAVYYCNKDYLLRHYYIYVIEGDYWGQGTQVTVSS”, which “polyreactivity (PSR sort gate)” value is on record?
A: low polyreactivity

Q: Which “polyreactivity (PSR sort gate)” value does the source give for “QLQLVESGGGLVQAGGSLRLSCAASGSTFTFNAMGWYRQAPGKERELVATISRGGSTSYADSVKGRFTISRDNAKNTVYLQMNSLNPEDTAVYYCAAVLYPSIYGFAGGKTDYDYWGQGTQVTVSS” here?
A: low polyreactivity

Q: For “QVQLVESGGGLVQAGGSLRLSFAASGITFYYYTMGWYRQAPGKERELVAGITRGGRTYYADSVKGRFTISRDNSKNSVYLQMNSLKPEDTAVYYFNADPWWRFDYWGQGTQVTVSS”, which “polyreactivity (PSR sort gate)” value is on record?
A: low polyreactivity

Q: Which “polyreactivity (PSR sort gate)” value does the source give for “QVQLVESGGGLVQSGGTLRLSWAASGFSFAGNAMGWYRLAPGKERELVAVISKRGGPTYYADSVKGRFTFSRDNAKNTVDLQMNSLKPEDTAVYYCAADSGGPGYAMDYWGQGTEVTVSS” here?
A: high polyreactivity

Q: With “QVQLVESGGGLVQAGCSLRLSCAASGITFAWYAMGWYRQAPGKERELVAAIDDRGGSTYYADSVKGRFTISRDNAKNTVYLQMNSLKPEDTAVYYCNADTPSYEPYRLDYWGQGTQVTVSS” as the sequence, how does the “polyreactivity (PSR sort gate)” value read?
A: low polyreactivity

Q: With “QVQLVDSGGGLVQAGGSLRLSCASSGSTFVLYAMGWYRQAPGKERELVAAITWSGDDTYYADSVKGRFTISRDNAKNTVYLQMNSLKPEDTAVYYCAAAYADWGQGTQVTVSS” as the sequence, how does the “polyreactivity (PSR sort gate)” value read?
A: low polyreactivity

Q: For “QVQLVESGGGLVQAGGSLRLSCAASGSIFDYNAMGWYRQAPGKERELVAAISSGGSTNYADSVKGRFTISRDNAKNTVYLQMNSLKPEDTAVYYCNTGLYWLGYWPDDYWGQGTQVTVSS”, which “polyreactivity (PSR sort gate)” value is on record?
A: low polyreactivity

Q: For “QVQLVESGGGLVQAGGSLRLSCAASGRTFYTYAMGWYRQAPGKERELVAAITVTGDSTYYADSVKGRFTISRDNAKNTVYLQMNSLKPEDTAVYYCAADDYDPWYDWTMYYWGQGTQVTVSS”, which “polyreactivity (PSR sort gate)” value is on record?
A: high polyreactivity

Q: For “QVQLVESGGGLVQAGGSLRLSCAASGSISQGNAMGWYRQAPGKERELVAAIRWTSGRTYYADSVKGRFTISRDNAKNTVSLEINSLKPEDPAVYYCAAYYVYYTPTLFDRDYWGQGTQVTVSS”, which “polyreactivity (PSR sort gate)” value is on record?
A: low polyreactivity

Q: For “QVQLVESGGGLVQAGGSLRLSCAASGRIFPGNALGWYIKAPGKEREFVASINWSVGSTFYADSVKGRFTISRDNAKHTVYLQMNSLKPEDTAVYYCAARTFGYYRSRSFNYWGQGTQVTVSS”, which “polyreactivity (PSR sort gate)” value is on record?
A: high polyreactivity

Q: Which “polyreactivity (PSR sort gate)” value does the source give for “QVHLVESGGGLVHAGGSLRLSCAASGSIFPYYAMGWYRQAPGKETELVAAISRSGGSTYYADSVKGRFTISRDYAKNTVYLQMNSLKPDDTAVYYCAADYARYVRKTRYGSWGKGTQVTVSS” here?
A: high polyreactivity

Q: For “QVQLVESGGGLVQAGGSLRLSCAASGRTFTANAMGWYRQAPGKERELVAAIRWRGGSTSYADSVKGRFTISRDNAKNTVYLQMNSLKPEDTAVYYCAAESRWRSSAGGYYYWGQGTQVTVSS”, which “polyreactivity (PSR sort gate)” value is on record?
A: low polyreactivity

Q: With “QVQLGESGGGLVQAGGSLRLSCAASGSTFPFNAMGWYRQAPGKERELVAAITLRGGRTYYADSVKGRFTISRDNAKNTVYLQMNSMKPEDTAVYYCAARHNPYRYYHWGQGTQVTVSS” as the sequence, how does the “polyreactivity (PSR sort gate)” value read?
A: high polyreactivity
